First the molecules themselves.
B1: Synaptotagmin-2 (Mus musculus), P46097 (parent)
chain: MRNIFKRNQEPNVAPATTTATMPLAPVAPADNSTESTGPGESQEDMFAKLKEKFFNEINKIPLPPWALIAMAVVAGLLLLTCCFCICKKCCCKKKKNKKEKGKGMKNAMNMKDMKGGQDDDDAETGLTEGEGEGEEEKEPENLGKLQFSLDYDFQANQLTVGVLQAAELPALDMGGTSDPYVKVFLLPDKKKKYETKVHRKTLNPAFNETFTFKVPYQELAGKTLVMAIYDFDRFSKHDIIGEVKVPMNTVDLGQPIEEWRDLQGGEKEEPEKLGDICTSLRYVPTAGKLTVCILEAKNLKKMDVGGLSDPYVKIHLMQNGKRLKKKKTTVKKKTLNPYFNESFSFEIPFEQIQKVQVVVTVLDYDKLGKNEAIGKIFVGSNATGTELRHWSDMLANPRRPIAQWHSLKPEEEVDALLGKNK

The results in this text go back to IntAct's records for PubMed 17167418.

The variants in this assay derive from B1. As to conditions: with bxb_clobo botB.
Regarding F55A, the “effect of a mutation on the interaction” value is “disrupting interaction strength”.
On to F47A, for which the “effect of a mutation on the interaction” value is recorded as “disrupting interaction strength”.
With F54A, the “effect of a mutation on the interaction” value was “disrupting interaction strength”.
